# Patent US20230406951A1 (Pfizer, published 2023)
# T1: human TNFR2 (human, UniProt P20333 23-461)
# T1 construct: expressed on the surface of CHO cells; also called HuTNFR2; TNFRSF1B
# T1 sequence: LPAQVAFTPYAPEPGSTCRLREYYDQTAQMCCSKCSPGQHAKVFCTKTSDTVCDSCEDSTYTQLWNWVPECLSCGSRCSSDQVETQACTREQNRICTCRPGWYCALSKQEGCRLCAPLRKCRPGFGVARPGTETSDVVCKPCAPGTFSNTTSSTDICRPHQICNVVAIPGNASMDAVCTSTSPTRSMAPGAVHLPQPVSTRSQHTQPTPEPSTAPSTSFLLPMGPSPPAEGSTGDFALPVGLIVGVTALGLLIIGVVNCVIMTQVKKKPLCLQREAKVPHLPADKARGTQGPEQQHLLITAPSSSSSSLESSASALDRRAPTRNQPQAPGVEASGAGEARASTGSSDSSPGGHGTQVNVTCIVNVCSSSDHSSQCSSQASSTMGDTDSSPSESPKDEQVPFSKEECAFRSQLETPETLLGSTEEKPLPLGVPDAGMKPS
# Target: T1, human TNFR2
# Assay: binding to human TNFR2 CHO cells
row,Binder,binding result
1,"TetraFab 2173 (antibody, TetraFab) heavy: QVQLVQSGAEVKKPGASVKVSCKVSGFSFPSSGVDWVRQAPGQGLEWLGVTLGHGSTHYNQKFQGRVTITKDTSKSTVYMELSSLRSEDTAVYYCASGEWDEGFVYWGQGTLVTVSSASTKGPSVFPLAPSSKSTSGGTAALGCLVKDYFPEPVTVSWNSGALTSGVHTFPAVLQSSGLYSLSSVVTVPSSSLGTQTYICNVNHKPSNTKVDKKVEPKSCGGGGSQVQLVQSGAEVKKPGASVKVSCKVSGFSFPSSGVDWVRQAPGQGLEWLGVTLGHGSTHYNQKFQGRVTITKDTSKSTVYMELSSLRSEDTAVYYCASGEWDEGFVYWGQGTLVTVSSASTKGPSVFPLAPSSKSTSGGTAALGCLVKDYFPEPVTVSWNSGALTSGVHTFPAVLQSSGLYSLSSVVTVPSSSLGTQTYICNVNHKPSNTKVDKKVEPKSCDKTHTCPPCPAPEAAGAPSVFLFPPKPKDTLMISRTPEVTCVVVDVSHEDPEVKFNWYVDGVEVHNAKTKPREEQYNSTYRVVSVLTVLHQDWLNGKEYKCKVSNKALPAPIEKTISKAKGQPREPQVYTLPPSREEMTKNQVSLTCLVKGFYPSDIAVEWESNGQPENNYKTTPPVLDSDGSFFLYSKLTVDKSRWQQGNVFSCSVMHEALHNHYTQKSLSLSPGK light: DIQLTQSPSFLSASVGDRVTITCKASQNVGTAVAWYQQKPGKAPKLLIYAASTLQSGVPSRFSGSGSGTEFTLTISSLQPEDFATYYCLQYSSYPLTFGGGTKVEIKRTVAAPSVFIFPPSDEQLKSGTASVVCLLNNFYPREAKVQWKVDNALQSGNSQESVTEQDSKDSTYSLSSTLTLSKADYEKHKVYACEVTHQGLSSPVTKSFNRGEC",no binding
2,"TetraFab 2174 (antibody, TetraFab) heavy: QVQLVQSGAEVKKPGASVKVSCKVSGFSFPSSGVDWVRQAPGQGLEWLGVTHGSGSTHYNQKFQGRVTITKDTSKSTVYMELSSLRSEDTAVYYCASGEWDEGFVYWGQGTLVTVSSASTKGPSVFPLAPSSKSTSGGTAALGCLVKDYFPEPVTVSWNSGALTSGVHTFPAVLQSSGLYSLSSVVTVPSSSLGTQTYICNVNHKPSNTKVDKKVEPKSCGGGGSQVQLVQSGAEVKKPGASVKVSCKVSGFSFPSSGVDWVRQAPGQGLEWLGVTHGSGSTHYNQKFQGRVTITKDTSKSTVYMELSSLRSEDTAVYYCASGEWDEGFVYWGQGTLVTVSSASTKGPSVFPLAPSSKSTSGGTAALGCLVKDYFPEPVTVSWNSGALTSGVHTFPAVLQSSGLYSLSSVVTVPSSSLGTQTYICNVNHKPSNTKVDKKVEPKSCDKTHTCPPCPAPEAAGAPSVFLFPPKPKDTLMISRTPEVTCVVVDVSHEDPEVKFNWYVDGVEVHNAKTKPREEQYNSTYRVVSVLTVLHQDWLNGKEYKCKVSNKALPAPIEKTISKAKGQPREPQVYTLPPSREEMTKNQVSLTCLVKGFYPSDIAVEWESNGQPENNYKTTPPVLDSDGSFFLYSKLTVDKSRWQQGNVFSCSVMHEALHNHYTQKSLSLSPGK light: DIQLTQSPSFLSASVGDRVTITCKASQNVGTAVAWYQQKPGKAPKLLIYAASTLQSGVPSRFSGSGSGTEFTLTISSLQPEDFATYYCLQYSSYPLTFGGGTKVEIKRTVAAPSVFIFPPSDEQLKSGTASVVCLLNNFYPREAKVQWKVDNALQSGNSQESVTEQDSKDSTYSLSSTLTLSKADYEKHKVYACEVTHQGLSSPVTKSFNRGEC",no binding
3,"TetraFab 2179 (antibody, TetraFab) heavy: QVQLVQSGAEVKKPGASVKVSCKVSGFSFPSSGVDWVRQAPGQGLEWLGVTKGQGSTHYNQKFQGRVTITKDTSKSTVYMELSSLRSEDTAVYYCASGESTEGFVYWGQGTLVTVSSASTKGPSVFPLAPSSKSTSGGTAALGCLVKDYFPEPVTVSWNSGALTSGVHTFPAVLQSSGLYSLSSVVTVPSSSLGTQTYICNVNHKPSNTKVDKKVEPKSCGGGGSQVQLVQSGAEVKKPGASVKVSCKVSGFSFPSSGVDWVRQAPGQGLEWLGVTKGQGSTHYNQKFQGRVTITKDTSKSTVYMELSSLRSEDTAVYYCASGESTEGFVYWGQGTLVTVSSASTKGPSVFPLAPSSKSTSGGTAALGCLVKDYFPEPVTVSWNSGALTSGVHTFPAVLQSSGLYSLSSVVTVPSSSLGTQTYICNVNHKPSNTKVDKKVEPKSCDKTHTCPPCPAPEAAGAPSVFLFPPKPKDTLMISRTPEVTCVVVDVSHEDPEVKFNWYVDGVEVHNAKTKPREEQYNSTYRVVSVLTVLHQDWLNGKEYKCKVSNKALPAPIEKTISKAKGQPREPQVYTLPPSREEMTKNQVSLTCLVKGFYPSDIAVEWESNGQPENNYKTTPPVLDSDGSFFLYSKLTVDKSRWQQGNVFSCSVMHEALHNHYTQKSLSLSPGK light: DIQLTQSPSFLSASVGDRVTITCKASQNVGTAVAWYQQKPGKAPKLLIYAASTLQSGVPSRFSGSGSGTEFTLTISSLQPEDFATYYCLQYSSYPLTFGGGTKVEIKRTVAAPSVFIFPPSDEQLKSGTASVVCLLNNFYPREAKVQWKVDNALQSGNSQESVTEQDSKDSTYSLSSTLTLSKADYEKHKVYACEVTHQGLSSPVTKSFNRGEC",no binding

# Other lines, results leading:
row,binding result,Binder
1,no binding,"TetraFab 2176 (antibody, TetraFab) heavy: QVQLVQSGAEVKKPGASVKVSCKVSGFSFPSSGVDWVRQAPGQGLEWLGVTWGVGSTHYNQKFQGRVTITKDTSKSTVYMELSSLRSEDTAVYYCASGEHDEGFVYWGQGTLVTVSSASTKGPSVFPLAPSSKSTSGGTAALGCLVKDYFPEPVTVSWNSGALTSGVHTFPAVLQSSGLYSLSSVVTVPSSSLGTQTYICNVNHKPSNTKVDKKVEPKSCGGGGSQVQLVQSGAEVKKPGASVKVSCKVSGFSFPSSGVDWVRQAPGQGLEWLGVTWGVGSTHYNQKFQGRVTITKDTSKSTVYMELSSLRSEDTAVYYCASGEHDEGFVYWGQGTLVTVSSASTKGPSVFPLAPSSKSTSGGTAALGCLVKDYFPEPVTVSWNSGALTSGVHTFPAVLQSSGLYSLSSVVTVPSSSLGTQTYICNVNHKPSNTKVDKKVEPKSCDKTHTCPPCPAPEAAGAPSVFLFPPKPKDTLMISRTPEVTCVVVDVSHEDPEVKFNWYVDGVEVHNAKTKPREEQYNSTYRVVSVLTVLHQDWLNGKEYKCKVSNKALPAPIEKTISKAKGQPREPQVYTLPPSREEMTKNQVSLTCLVKGFYPSDIAVEWESNGQPENNYKTTPPVLDSDGSFFLYSKLTVDKSRWQQGNVFSCSVMHEALHNHYTQKSLSLSPGK light: DIQLTQSPSFLSASVGDRVTITCKASQNVGTAVAWYQQKPGKAPKLLIYAASTLQSGVPSRFSGSGSGTEFTLTISSLQPEDFATYYCLQYSSYPLTFGGGTKVEIKRTVAAPSVFIFPPSDEQLKSGTASVVCLLNNFYPREAKVQWKVDNALQSGNSQESVTEQDSKDSTYSLSSTLTLSKADYEKHKVYACEVTHQGLSSPVTKSFNRGEC"
2,no binding,"TetraFab 2175 (antibody, TetraFab) heavy: QVQLVQSGAEVKKPGASVKVSCKVSGFSFPSSGVDWVRQAPGQGLEWLGVTWGVGSTHYNQKFQGRVTITKDTSKSTVYMELSSLRSEDTAVYYCASGESTEGFVYWGQGTLVTVSSASTKGPSVFPLAPSSKSTSGGTAALGCLVKDYFPEPVTVSWNSGALTSGVHTFPAVLQSSGLYSLSSVVTVPSSSLGTQTYICNVNHKPSNTKVDKKVEPKSCGGGGSQVQLVQSGAEVKKPGASVKVSCKVSGFSFPSSGVDWVRQAPGQGLEWLGVTWGVGSTHYNQKFQGRVTITKDTSKSTVYMELSSLRSEDTAVYYCASGESTEGFVYWGQGTLVTVSSASTKGPSVFPLAPSSKSTSGGTAALGCLVKDYFPEPVTVSWNSGALTSGVHTFPAVLQSSGLYSLSSVVTVPSSSLGTQTYICNVNHKPSNTKVDKKVEPKSCDKTHTCPPCPAPEAAGAPSVFLFPPKPKDTLMISRTPEVTCVVVDVSHEDPEVKFNWYVDGVEVHNAKTKPREEQYNSTYRVVSVLTVLHQDWLNGKEYKCKVSNKALPAPIEKTISKAKGQPREPQVYTLPPSREEMTKNQVSLTCLVKGFYPSDIAVEWESNGQPENNYKTTPPVLDSDGSFFLYSKLTVDKSRWQQGNVFSCSVMHEALHNHYTQKSLSLSPGK light: DIQLTQSPSFLSASVGDRVTITCKASQNVGTAVAWYQQKPGKAPKLLIYAASTLQSGVPSRFSGSGSGTEFTLTISSLQPEDFATYYCLQYSSYPLTFGGGTKVEIKRTVAAPSVFIFPPSDEQLKSGTASVVCLLNNFYPREAKVQWKVDNALQSGNSQESVTEQDSKDSTYSLSSTLTLSKADYEKHKVYACEVTHQGLSSPVTKSFNRGEC"
